From publication PMC6165294, “The Effect of Ca^2+, Lobe-Specificity, and CaMKII on CaM Binding to NaV1.1” (International Journal of Molecular Sciences, 2018) come the findings set out here.

Ends that are not written are not given here.

In the assay the target is T1, calmodulin (CaM), human, wild type (human, UniProt P0DP23 1-149).
T1 construct: human calmodulin, subcloned from HEK293 cells; Vector pGEX-6P-1; also called wt CaM; apoCaM; source: E. coli BL21 (DE3), GST fusion purified on Glutathione Sepharose 4B; GST cleaved with PreScission Protease
Kind of assay: pull-down; GST-fusion mutated IQ (T1909A, S1918A, T1934A), treated with CaMKII and CIP, incubated with a fixed concentration of CaM (1.4 uM); [Ca2+] ≈ free; Coomassie stain. The note with it: both partners purified.

B1: GST-fusion NaV1.1 IQ domain, potential CaMKII phosphorylation sites mutant (T1909A + S1918A + T1934A) (domain or fragment)
chain: ALKRKQEEVAAVIIQRAYRRHLLKRAVK
modifications: not fully specified (N-terminus); also: GST fusion protein
notes: IQ domain of human NaV1.1, amino acids 1909-1936, with T1909A, S1918A and T1934A; the treated samples are kept as one molecule; also called mutated NaV1.1 IQ; source: E. coli BL21 (DE3), GST fusion purified on Glutathione Sepharose 4B beads
As for B1, the binding result was “binds”.
